{"source": "paper PMC10719177", "proteins": {"B1": {"name": "cystatin F: kifunensine (10 µM, 6 h); U-937, TALL-104, NK-92 (protein)", "parent chain": "MRAAGTLLAFCCLVLSTTGGPSPDTCSQDLNSRVKPGFPKTIKTNDPGVLQAARYSVEKFNNCTNDMFLFKESRITRALVQIVKGLKYMLEVEIGRTTCKKNQHLRLDDCDFQTNHTLKQTLSCYSEVWVVPWLQHFEVPVLRCH"}, "B2": {"name": "cystatin F: tunicamycin (1 µg/mL); U-937, NK-92 (protein)", "parent chain": "MRAAGTLLAFCCLVLSTTGGPSPDTCSQDLNSRVKPGFPKTIKTNDPGVLQAARYSVEKFNNCTNDMFLFKESRITRALVQIVKGLKYMLEVEIGRTTCKKNQHLRLDDCDFQTNHTLKQTLSCYSEVWVVPWLQHFEVPVLRCH"}, "B3": {"name": "cystatin F: kifunensine (10 µM, 6 h); pNK, sNK (protein)", "parent chain": "MRAAGTLLAFCCLVLSTTGGPSPDTCSQDLNSRVKPGFPKTIKTNDPGVLQAARYSVEKFNNCTNDMFLFKESRITRALVQIVKGLKYMLEVEIGRTTCKKNQHLRLDDCDFQTNHTLKQTLSCYSEVWVVPWLQHFEVPVLRCH"}, "B4": {"name": "cystatin F: tunicamycin (protein)", "parent chain": "MRAAGTLLAFCCLVLSTTGGPSPDTCSQDLNSRVKPGFPKTIKTNDPGVLQAARYSVEKFNNCTNDMFLFKESRITRALVQIVKGLKYMLEVEIGRTTCKKNQHLRLDDCDFQTNHTLKQTLSCYSEVWVVPWLQHFEVPVLRCH"}}, "key": {"[1]": {"experiment": "confocal colocalisation with LAMP-1/CD63 (Pearson), cell lines", "details": "control: untreated cells"}, "[2]": {"experiment": "confocal colocalisation (Pearson), primary and super-charged NK cells", "details": "glycan changed form; control: untreated cells"}, "[3]": {"experiment": "western blot of cell media", "details": "glycan lost; control: untreated cells"}}, "data": [{"protein": "B1", "values": [{"measurement": "localisation_or_trafficking", "setting": "[1]; glycan changed form", "result": "increases"}]}, {"protein": "B2", "values": [{"measurement": "localisation_or_trafficking", "setting": "[1]; glycan lost", "result": "decreases"}]}, {"protein": "B3", "values": [{"measurement": "localisation_or_trafficking", "setting": "[2]", "result": "increases"}]}, {"protein": "B4", "values": [{"measurement": "expression_or_secretion", "setting": "[3]", "result": "changes"}]}]}
